What was measured:
CYP79D61 = target: T1, CYP79D61 (Erythroxylum fischeri, UniProt A0A1D8QQQ4); experiment: aldoxime formation by recombinant yeast microsomes, LC-MS/MS; format: biochemical; settings: 1 mM substrate, 1 mM NADPH, 75 mM sodium phosphate pH 7.0, 25 °C
T1 construct: complete ORF in pESC-Leu2d, Saccharomyces cerevisiae WAT11 microsomes
T1 sequence (A0A1D8QQQ4 1-531): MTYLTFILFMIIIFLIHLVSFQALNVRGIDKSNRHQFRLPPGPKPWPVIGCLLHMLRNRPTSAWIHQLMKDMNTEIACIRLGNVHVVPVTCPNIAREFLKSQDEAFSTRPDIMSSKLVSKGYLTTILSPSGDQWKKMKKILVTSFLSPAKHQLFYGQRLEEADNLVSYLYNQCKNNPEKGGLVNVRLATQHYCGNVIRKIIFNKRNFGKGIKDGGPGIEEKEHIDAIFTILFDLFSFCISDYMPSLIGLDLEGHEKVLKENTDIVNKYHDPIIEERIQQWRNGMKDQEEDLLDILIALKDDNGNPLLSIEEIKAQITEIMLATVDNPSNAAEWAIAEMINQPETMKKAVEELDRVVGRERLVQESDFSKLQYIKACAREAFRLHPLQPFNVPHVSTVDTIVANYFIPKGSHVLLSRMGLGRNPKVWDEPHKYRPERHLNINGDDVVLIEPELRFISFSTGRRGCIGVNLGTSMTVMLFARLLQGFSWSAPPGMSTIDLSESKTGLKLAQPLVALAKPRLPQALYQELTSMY

[1] = substrate: N[C@@H](Cc1c[nH]c2ccccc12)C(=O)O; experiment: as above; format: biochemical, Erythroxylum coca; settings: 1 mM NADPH, 75 mM sodium phosphate pH 7.0, 25 °C
Description: aldoxime formation by recombinant yeast microsomes, LC-MS/MS on CYP79D63

[2] = substrate: CC[C@H](C)[C@H](N)C(=O)O; experiment: cells, lysate or membranes; settings: 1 mM NADPH, 75 mM sodium phosphate pH 7.0, 25 °C
[3] = substrate: N[C@@H](Cc1ccc(O)cc1)C(=O)O; experiment: cells, lysate or membranes; settings: 1 mM NADPH, 75 mM sodium phosphate pH 7.0, 25 °C
[4] = substrate: N[C@@H](Cc1c[nH]c2ccccc12)C(=O)O; experiment: aldoxime formation by recombinant yeast microsomes, LC-MS/MS; format: biochemical, Erythroxylum coca; settings: 1 mM NADPH, 75 mM sodium phosphate pH 7.0, 25 °C; remark: listed apart in the source
[5] = substrate: N[C@@H](Cc1ccccc1)C(=O)O; experiment: as above; format: biochemical, Erythroxylum coca; settings: 1 mM NADPH, 75 mM sodium phosphate pH 7.0, 25 °C
[6] = substrate: N[C@@H](Cc1c[nH]c2ccccc12)C(=O)O; experiment: as above; format: biochemical, Erythroxylum fischeri; settings: 1 mM NADPH, 75 mM sodium phosphate pH 7.0, 25 °C
[7] = substrate: N[C@@H](Cc1ccccc1)C(=O)O; experiment: as above; format: biochemical, Erythroxylum fischeri; settings: 1 mM NADPH, 75 mM sodium phosphate pH 7.0, 25 °C

## N[C@@H](Cc1ccccc1)C(=O)O [L-Phe]
CYP79D61
  aldoxime formation by recombinant yeast microsomes, LC-MS/MS: CYP79D62, CYP79D60, and CYP79D61 accepted all tested amino acids

B1: CYP79D63 (Erythroxylum coca) (protein)
chain: MTYLILILIMIISFLIHLVSFQALNVRGSGKSNRHQFQLPPGPKPWPVIGCLPQMLRNRPTFAWIHQLMKDMNTEIACIRLGSIHVIPVTCPNIAREILKSQDEAFSSRPDFMSSTLVSRGYLATTLSPPGDQWKKMRKILVTSCLSPAKHRLFYRKRLEVADNLVSYLYSQCKDNPEKGGLVNVRLATQHYCGNVIRKIVFNKRNFGKGMKDGGPGIEEKEHIDALFTILFYVFSFCISDYMPSLIGLDLEGHEKVLKENTDIVNKYHDPIIQERIRQWRNGMKDQEEDLLDILIALKDNNGNPLLSIEEIKAQITEIVLASVDNPSNAAEWAIAEMINQPKIMKKAVEELDSVVGSERLVQESDFSKLQYVKACAREAFRLHPMQPFNVPHVSTMDTTIANYFIPKGSHVLLSRMRLGRNSKVWDEPHKYRPERHLSNGDDVLLIEPELRFISFSTGRRGCIGVNLGTSMTIMLFARLLQGFNWSAPPGKSAVDLNESKIGLTLAQPLVALAKPRLPQALYQELTSCINHS
notes: complete ORF in pESC-Leu2d, Saccharomyces cerevisiae WAT11 microsomes
[1]
  Km: 480 ± 50 µM

B2: CYP79D62 (Erythroxylum coca) (protein)
chain: MTYLILILIMIILVSFQALNVRCNDKSNRHQLQLPPGPKPWPVIGCLPQMLRNRPTFAWIHQLMKDMNTEIACIRLGNVHVIPVTCPNIAREFLKSQDEAFSSRPDFMSNKLVSKRYLTTALSPSGDQWKKMKKILVTSFLSPAKHQLFYGKRLEEADNLVSYLYGQCKNNPEKGGLVNVRLATRHYCGNVIRKIVFNKRNFGEGMKDGGPGIEEKEHIDAIFTILSYLFSFCISDYMPSLIGLDLEGHEKVLKENTDIVNKYHDPIIEERIQQWRNGMKDREEDLLDILIALKDDNGNPLLSIEEIKAQITEIILATVDNPSNAAEWAIAEMINQPEMMKKAVEELDRVVGRERLVQESDFVKLQYVKACAREAFRLHPLEPFNIPHVSTVDTTVANYFIPKGSHVLLSRMGLGRNPKVWDEPHKYKPERHLSNGDDVVLIEPELRFISFSTGRRGCIGVNLGTSMTVMLFARLLQGFSWSAPPGKLAINLNESKTGLALAQPLVALAKPRLPQALYQELTSCINHS
notes: as for B1
[2]
  Km: 3270 ± 420 µM
[3]
  Km: 4990 ± 460 µM
[4]
  Km: 1090 ± 40 µM
[5]
  Km: 670 ± 70 µM

B3: CYP79D60 (Erythroxylum fischeri) (protein)
chain: MTYLILILIMIITFLIHLVSFQALNVRGSDKSNRQQFQLPPGPKPWPVIGCLLQMLRNRPTSAWIHQLMKDMNTEIACIRLGNVHVIPVTCPNIAREFLKSQDEAFSSRPDFMSNKLVSKGYLTTALSPSGDQWKKMKKILVTSFLSPAKHKLFYGKRLEEADHLVSYLYNQCKNNPEKGGLVNVRLATQHYCGNVIRKIVFNKRNFGKGMEDGGPGIEEKEHIDALFTILFYLFSFCISDYMPSLIGLDLEGHEKVLRENTDIVNKYHDPIIEERIQQWRNGMKDQEEDLLDILIALKDDNGSPLLSIEEIKAQITEIMIAAVDNPSNAAEWAIAEMINQPETMKKAVEELDRAVGRERLVQESDFSKLKYIKACAREAFRLHPMEAFNVPHVSTVDTIVANYFIPKGSHVLLSRMGIGRNPKVWDEPHKYKPERHLKNGDDVVLTEPELRFISFSTGRRGCIGVNLGTSMTVMLFARLLQGFSWSAPPGMSTIDLSESKTGLKLAQPLVALAKPRLPQALYQELTSCINHS
notes: as for B1
[2]
  Km: 1280 ± 250 µM
[3]
  Km: 6090 ± 1320 µM
[6]
  Km: 2740 ± 110 µM
[7]
  Km: 580 ± 50 µM

From article PMC5050915, “CYP79D enzymes contribute to jasmonic acid-induced formation of aldoximes and other nitrogenous volatiles in two Erythroxylum species” (BMC Plant Biology, 2016)
